Laboratory results: publication PMC9908901, “Identification of a tomato UDP-arabinosyltransferase for airborne volatile reception” (Nature Communications, 2023)

Legend:
Assay in all cases: steady-state kinetics, HPLC-MS of glycoside product
Assay type in all cases: biochemical, Solanum lycopersicum
[1] = substrate: CC/C=C\CCO[C@@H]1O[C@H](CO)[C@@H](O)[C@H](O)[C@H]1O; conditions: UDP-arabinose fixed as donor, 50 mM potassium phosphate pH 7.5, 30 °C
Description: (§1) steady-state kinetics, HPLC-MS of glycoside product on UGT91R1

[2] = substrate: O=c1ccn([C@@H]2O[C@H](COP(=O)(O)OP(=O)(O)O[C@H]3OC[C@@H](O)[C@H](O)[C@H]3O)[C@@H](O)[C@H]2O)c(=O)[nH]1; conditions: HexGlc fixed as acceptor, 50 mM potassium phosphate pH 7.5, 30 °C
Description: as §1

[3] = substrate: O=c1ccn([C@@H]2O[C@H](COP(=O)(O)OP(=O)(O)O[C@H]3OC[C@H](O)[C@H](O)[C@H]3O)[C@@H](O)[C@H]2O)c(=O)[nH]1; conditions: HexGlc fixed as acceptor, 50 mM potassium phosphate pH 7.5, 30 °C
Description: as §1

B1: UGT91R1 (Solanum lycopersicum) (protein)
chain: MAENGKKLHIAVFPWLAFGHMIPYLELSKLIAQKGHKISFISTPRNIDRLPKLPPNLTPFLNFVKLPMPHVEKLPENAEATIDLPYEQVKYLKLAQDALQESMSKFIEDSDIDFILFDFTSYWVPSIASKFNIPSGYFSIFIAAFLGFTGPVPGLNNDYEIRMTPEEYTVTPKWVPFETTVAFKLFEVSRIFEASMKGEEENIADIVRYYRSVENCDFLLVRSCSEFEPEWLKVVGDIHRKPVFPVGQLPTTPYEDDSTKIDAWREIKLWLDKQEKGKVIYVAFGSEAKPSQNELTELSLGLELSGLPFFWVLRIKRGESDDELIQLPEGFEERTKGRGIVCTSWAPQLKILSHDSVGGFLTHSGWSSVVEAIQFEKSLVLLTFLADQGINARLLEEKKMAYSIPRNDQDGSFTRDSVAESLNLVLVKEEGFIYREKIKEMKDLFCDKKRQNNYVENLLSFLQDYEKIKA
notes: full length, synthetic cDNA in pET15b, E. coli BL21(DE3), HisTrap purified
- Km [1]: 5.9 ± 0.5 µM
- kcat [1]: 0.33 ± 0.009 s⁻¹
- kcat/Km [1]: 57000 ± 5000 M⁻¹ s⁻¹
- Km [2]: 603 ± 75 µM
- kcat [2]: 1.8 ± 0.1 s⁻¹
- kcat/Km [2]: 3000 ± 400 M⁻¹ s⁻¹
- Km [3]: 38 ± 4 µM
- kcat [3]: 1.9 ± 0.1 s⁻¹
- kcat/Km [3]: 51000 ± 5000 M⁻¹ s⁻¹
